Data as given in patent US10947272B2, “BACE1 inhibitor peptides” (HOFFMANN-LA ROCHE INC., priority 2015, dated 2021).
Read-outs that look alike come from different tables or passages of the source. Each block holds one molecule with its values, some of them ahead of it. Numbered stars: 1 amine (or outer) side, 2 acyl side, 3 side chain; on linkers, the order of the positions; unused ones are H or OH. Square brackets hold non-standard residues; d marks the D form. Ends that are not written are not given here. Peptide text beside a SMILES is read from it. MetSta(3S,4S) = CSCC[C@H](N[*:1])[C@@H](O)CC(=O)[*:2]; Sta = CC(C)C[C@H](N)[C@@H](O)CC(=O)O; PEG4 = NCCOCCOCCOCCOCCC(=O)O

Legend:
[1] = target: BACE1 (Asp2, β-secretase, Memapsin-2) in HEK293 cells stably expressing human APP695 (UniProt P56817); assay: cell-based or functional assay
[2] = target: T1, BACE1 (Homo sapiens, UniProt P56817); assay: Cellular Aβ-lowering assay (Aβ40 ELISA of culture supernatant); type: cell-based; conditions: HEK293 cells stably transfected with human APP wt (APP695), Aβ40 in supernatant
T1 construct: Human HEK293 cells which are stably transfected with a vector expressing a cDNA of the human APP wt gene (APP695); endogenous in cells; host or cells: HEK293 (human), stably transfected with human APP695 wt cDNA
Experimental: The compounds were investigated in accordance with the test given hereinafter. Cellular Aβ-Lowering Assay: Human HEK293 cells which are stably transfected with a vector expressing a cDNA of the human APP wt gene (APP695) were used to assess the potency of the compounds in a cellular assay. The cells were seeded in 96-well microtiter plates in cell culture medium (Iscove, plus 10% (v/v) fetal bovine serum, glutamine, penicillin/streptomycin) to about 80% confluence and the compounds were added at a 10× concentration in 1/10 volume of medium without FCS containing 8% DMSO (final concentration of DMSO was kept at 0.8% v/v). After 18-20 hrs incubation at 37° C. and 5% CO2 in a humidified incubator the culture supernatant was harvested for the determination of Aβ40 concentrations. 96 well ELISA plates (e.g., Nunc MaxiSorb) were coated with monoclonal antibody which specifically recognize the C-terminal end of Aβ40 (Brockhaus et al., NeuroReport 9, 1481-1486; 1998). After blocking of non-specific binding sites with e.g. 1% BSA and washing, the culture supernatants were added in suitable dilutions together with a horseradish peroxidase-coupled Aβ detection antibody (e.g., antibody 4G8, Senetek, Maryland Heights, Mo.) and incubated for 5 to 7 hrs. Subsequently the wells of the microtiter plate were washed extensively with Tris-buffered saline containing 0.05% Tween 20 and the assay was developed with tetramethylbenzidine/H2O2 in citric acid buffer. After stopping the reaction with one volume 1 N H2SO4 the reaction was measured in an ELISA reader at 450 nm wavelength. The concentrations of Aβ in the culture supernatants were calculated from a standard curve obtained with known amounts of pure Aβ peptide.

[3] = target: T2, BACE1 (Asp2, β-secretase, Memapsin-2) in HEK293 cells stably expressing human APP695 (UniProt P56817 46-501, limits assumed); assay: cell-based or functional assay
[4] = target: T2, BACE1 (Asp2, β-secretase, Memapsin-2) …; assay: cell-based or functional assay; remark: listed apart in the source
[5] = dual-site BACE1 inhibitors, 18-20 hrs incubation, read-out: IC 50

T2 sequence (P56817 46-501 limits assumed): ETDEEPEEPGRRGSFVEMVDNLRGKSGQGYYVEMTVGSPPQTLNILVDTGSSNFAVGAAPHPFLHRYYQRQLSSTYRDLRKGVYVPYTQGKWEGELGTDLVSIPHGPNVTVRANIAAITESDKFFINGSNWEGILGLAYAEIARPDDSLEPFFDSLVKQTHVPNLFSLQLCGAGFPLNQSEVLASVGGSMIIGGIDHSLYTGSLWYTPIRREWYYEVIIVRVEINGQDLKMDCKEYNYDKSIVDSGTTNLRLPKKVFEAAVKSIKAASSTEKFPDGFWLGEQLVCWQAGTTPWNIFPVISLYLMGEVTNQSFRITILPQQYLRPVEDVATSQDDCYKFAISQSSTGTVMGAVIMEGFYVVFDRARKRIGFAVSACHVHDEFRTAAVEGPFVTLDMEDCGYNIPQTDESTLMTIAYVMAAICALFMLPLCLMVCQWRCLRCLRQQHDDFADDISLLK
T1 sequence (P56817 46-501): as the sequence (P56817 46-501 limits assumed) above
Sequence of BACE1 (Asp2, β-secretase, Memapsin-2) in HEK293 cells stably expressing human APP695 (UniProt P56817) (P56817 46-501 limits assumed): as above

Molecule: CC[C@H](C)[C@H](NC(=O)[C@H](Cc1ccccc1)NC(=O)[C@H](Cc1ccc(O)cc1)NC(=O)[C@@H]1CCCN1C(=O)[C@@H](N)Cc1ccc(O)cc1)C(=O)N1CCC[C@H]1C(=O)N[C@H](CCCCN)C(=O)NCC(=O)N[C@H](CCCCN)C(=O)NCC(=O)N[C@@H](CCC(=O)O)C(=O)N[C@H](C(=O)N[C@@H](CC(N)=O)C(=O)N[C@@H](CCSC)[C@@H](O)CC(=O)N[C@H](C(=O)N[C@@H](C)C(=O)N[C@@H](CCC(=O)O)C(=O)N1CCC[C@H]1C(N)=O)C(C)C)C(C)C [Example 18, Tyr-Pro-Tyr-Phe-Ile-Pro-DLys-Gly-DLys-Gly-Glu-Val-Asn-MetSta-Val-Ala-Glu-Pro-NH2 × 3TFA]
IC50 [2, 5]: 0.015 µM

Molecule: CC(C)C[C@H](NC(=O)[C@@H]1CCCN1C(=O)[C@@H](CCCCN)NC(=O)[C@H](Cc1ccccc1)NC(=O)[C@H](Cc1ccc(O)cc1)NC(=O)[C@@H]1CCCN1C(=O)[C@@H](N)Cc1ccc(O)cc1)C(=O)NCCOCCOCCOCCOCCC(=O)N[C@@H](CCC(=O)O)C(=O)N[C@H](C(=O)N[C@@H](CC(N)=O)C(=O)N[C@@H](CC(C)C)[C@@H](O)CC(=O)N[C@H](C(=O)N[C@@H](C)C(=O)N[C@@H](CCC(=O)O)C(=O)N1CCC[C@@H]1C(N)=O)C(C)C)C(C)C [Example 24, H-Tyr-Pro-Tyr-Phe-DLys-Pro-Leu-PEG(4)-Glu-Val-Asn-Sta-Val-Ala-Glu-DPro-NH2 × 2TFA] (H-YPYF[dK]PL[PEG4]EVN[Sta]VAE[dP]-NH2)
IC50 ([2]; IC 50, dual-site BACE1 inhibitors, 18-20 hrs incubation): > 40 µM

Molecule: CC(C)C[C@H](NC(=O)[C@@H](CCCCN)NC(=O)[C@H](Cc1ccccc1)NC(=O)[C@H](Cc1ccc(O)cc1)NC(=O)[C@@H]1CCCN1C(=O)[C@@H](N)Cc1ccc(O)cc1)C(=O)NCCOCCOCCOCCOCCC(=O)N[C@@H](CCC(=O)O)C(=O)N[C@H](C(=O)N[C@@H](CC(N)=O)C(=O)N[C@@H](CC(C)C)[C@@H](O)CC(=O)N[C@H](C(=O)N[C@@H](C)C(=O)N[C@@H](CCC(=O)O)C(=O)N1CCC[C@@H]1C(N)=O)C(C)C)C(C)C [Example 23, H-Tyr-Pro-Tyr-Phe-DLys-Leu-PEG(4)-Glu-Val-Asn-Sta-Val-Ala-Glu-DPro-NH2 × 3TFA] (H-YPYF[dK]L[PEG4]EVN[Sta]VAE[dP]-NH2)
IC50 [2, 5]: > 40 µM

B1: Ac-YPTFKPANGS-NH2 (peptide)
peptide: Ac-YPTFKPANGS-NH2
modifications: not fully specified; printed as Ac-YPTFKPANGS-NH2
IC 50, cellular Aβ-lowering assay (Aβ40 in supernatant of HEK293 cells expressing human APP695) [3]: > 40 µM

B2: Ac-Gly-Asp-Tyr-Pro-Lys-Phe-Ile-Ser-Ala-Asn-NH2 (peptide)
peptide: Ac-GDYPKFISAN-NH2
IC 50, cellular Aβ-lowering assay (Aβ40 in supernatant of HEK293 cells expressing human APP695) [3]: > 40 µM

B3: Ac-Ser-Thr-Gly-Ala-Arg-Phe-Ile-Pro-Ala-Asn-NH2 (peptide)
peptide: Ac-STGARFIPAN-NH2
IC 50, cellular Aβ-lowering assay (Aβ40 in supernatant of HEK293 cells expressing human APP695) [3]: > 40 µM

B5: Ac-Leu-Thr-Thr-Tyr-Pro-Tyr-Phe-Lys-Pro-Ala-NH2 (peptide)
peptide: Ac-LTTYPYFKPA-NH2
IC 50, cellular Aβ-lowering assay (Aβ40 in supernatant of HEK293 cells expressing human APP695) [3]: 14.4 µM

B6: Ac-Gly-Ser-Tyr-Pro-Lys-Phe-Ile-Asp-Ala-Asn-NH2 (peptide)
peptide: Ac-GSYPKFIDAN-NH2
IC 50, cellular Aβ-lowering assay (Aβ40 in supernatant of HEK293 cells expressing human APP695) [3]: > 40 µM

B7: Ac-Gln-Gln-Tyr-Pro-Tyr-Phe-Lys-Pro-Ala-Asn-NH2 (peptide)
peptide: Ac-QQYPYFKPAN-NH2
IC 50, cellular Aβ-lowering assay (Aβ40 in supernatant of HEK293 cells expressing human APP695) [3]: > 40 µM

B9: Ac-Gly-Asp-Tyr-Pro-Lys-Phe-Ile-Pro-Ala-Ser-NH2 (peptide)
peptide: Ac-GDYPKFIPAS-NH2
IC 50, cellular Aβ-lowering assay (Aβ40 in supernatant of HEK293 cells expressing human APP695) [3]: > 40 µM

Second part, the molecule after the results:

IC 50, cellular Aβ-lowering assay (Aβ40 in supernatant of HEK293 cells expressing human APP695) [1]: 34.8 µM
Molecule: H-YPY[dK]IPLG[dK]GEVN[Sta]VAE[dP]-NH2

IC50 ([2]; exosite motifs alone, read-out: IC 50): > 40 µM
Molecule: CC[C@H](C)[C@H](NC(=O)[C@H](Cc1ccccc1)NC(=O)[C@H](CCCNC(=N)N)NC(=O)[C@H](C)NC(=O)CNC(=O)[C@@H](NC(=O)[C@H](CO)NC(C)=O)[C@@H](C)O)C(=O)N1CCC[C@H]1C(=O)N[C@@H](C)C(=O)N[C@@H](CC(N)=O)C(N)=O [Example E3, Ac-Ser-Thr-Gly-Ala-Arg-Phe-Ile-Pro-Ala-Asn-NH2] (Ac-STGARFIPAN-NH2)

IC 50, cellular Aβ-lowering assay (Aβ40 in supernatant of HEK293 cells expressing human APP695) [4]: > 40 µM
B4: Glu-Val-Asn-Sta-Val-Ala-Glu-DPro-NH2 × TFA (peptide)
peptide: EVN[Sta]VAE[dP]-NH2
modifications: also: TFA salt

IC 50, cellular Aβ-lowering assay (Aβ40 in supernatant of HEK293 cells expressing human APP695) [4]: > 40 µM
B8: Glu-Val-Asn-Sta-Val-Ala-Glu-Phe-NH2 × TFA (peptide)
peptide: EVN[Sta]VAEF-NH2
modifications: also: TFA salt

IC 50, cellular Aβ-lowering assay (Aβ40 in supernatant of HEK293 cells expressing human APP695) [4]: > 40 µM
B10: Glu-Val-Asn-MetSta-Val-Ala-Glu-DPhe-NH2 × TFA (peptide)
peptide: EVN[MetSta(3S,4S)]VAE[dF]-NH2
modifications: also: TFA salt
